The test system of series [1] is T1, GST-ASPP2 (693-1128), non-phosphorylated.
T1 sequence: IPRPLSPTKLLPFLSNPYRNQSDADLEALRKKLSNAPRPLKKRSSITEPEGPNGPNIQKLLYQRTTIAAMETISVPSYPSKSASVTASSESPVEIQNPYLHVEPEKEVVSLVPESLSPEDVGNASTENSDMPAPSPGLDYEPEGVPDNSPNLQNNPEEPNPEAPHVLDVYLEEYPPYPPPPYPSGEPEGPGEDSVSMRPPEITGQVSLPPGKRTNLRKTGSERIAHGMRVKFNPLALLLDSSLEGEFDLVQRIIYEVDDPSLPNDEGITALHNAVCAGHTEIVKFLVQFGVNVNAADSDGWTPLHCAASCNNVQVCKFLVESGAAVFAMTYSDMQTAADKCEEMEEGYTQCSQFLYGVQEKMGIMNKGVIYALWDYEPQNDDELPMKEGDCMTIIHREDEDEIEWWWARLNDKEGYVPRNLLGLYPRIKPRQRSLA

The target in series [2] is full length ASPP2, V5-tagged (transfected) (Homo sapiens (Human)) (UniProt Q13625). Kind of series: cell-based or functional assay.
Series [3] has as its target T2, full length ASPP1, V5-tagged (transfected) (Homo sapiens (Human)) (UniProt Q96KQ4).
T2 sequence: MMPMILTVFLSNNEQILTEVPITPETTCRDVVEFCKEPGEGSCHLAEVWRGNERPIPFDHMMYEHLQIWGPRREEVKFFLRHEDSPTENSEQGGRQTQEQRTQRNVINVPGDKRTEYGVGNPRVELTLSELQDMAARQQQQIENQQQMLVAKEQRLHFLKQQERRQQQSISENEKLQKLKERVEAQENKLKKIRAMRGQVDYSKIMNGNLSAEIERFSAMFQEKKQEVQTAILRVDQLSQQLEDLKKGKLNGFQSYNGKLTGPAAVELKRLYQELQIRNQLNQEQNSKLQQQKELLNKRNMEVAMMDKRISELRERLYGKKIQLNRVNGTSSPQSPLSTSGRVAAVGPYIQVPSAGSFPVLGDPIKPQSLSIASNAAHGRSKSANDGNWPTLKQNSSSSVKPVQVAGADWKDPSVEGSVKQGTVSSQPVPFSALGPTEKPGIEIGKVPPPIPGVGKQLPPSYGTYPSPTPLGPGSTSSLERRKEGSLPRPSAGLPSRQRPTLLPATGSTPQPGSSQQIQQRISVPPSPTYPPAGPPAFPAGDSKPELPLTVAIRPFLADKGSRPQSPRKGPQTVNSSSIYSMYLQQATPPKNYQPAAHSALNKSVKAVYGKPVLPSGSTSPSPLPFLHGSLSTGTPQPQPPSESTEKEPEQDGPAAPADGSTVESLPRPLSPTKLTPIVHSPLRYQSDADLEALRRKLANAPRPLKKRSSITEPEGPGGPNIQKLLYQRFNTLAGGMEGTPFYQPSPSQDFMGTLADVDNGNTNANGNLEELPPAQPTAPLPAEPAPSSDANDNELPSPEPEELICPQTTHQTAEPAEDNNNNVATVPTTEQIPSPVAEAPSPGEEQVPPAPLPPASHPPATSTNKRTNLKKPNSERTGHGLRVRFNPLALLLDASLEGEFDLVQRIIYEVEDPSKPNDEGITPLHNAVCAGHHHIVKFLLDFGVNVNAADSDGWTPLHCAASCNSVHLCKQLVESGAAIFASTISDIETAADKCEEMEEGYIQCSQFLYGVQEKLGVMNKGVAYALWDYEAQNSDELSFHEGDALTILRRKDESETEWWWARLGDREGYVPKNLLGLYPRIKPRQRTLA
Kind of series: cell-based or functional assay.

Series [4] deals with full length ASPP2, V5-tagged (transfected) (Homo sapiens (Human)) (UniProt Q13625). Briefly: cell-based or functional assay. This is another data set of the same source.
The target of series [5] is purified recombinant Ras loaded with GTP. Briefly: in vitro immunoprecipitation with V5 antibody, intensity of the Ras bands (FIG. 23B).
The target is the same in series [6]. Kind of series: in vitro immunoprecipitation of purified proteins with V5 antibody, intensity of the ras bands (FIG. 14C-D).
Series [7] relates to Ras. Kind of series: In vitro immunoprecipitation of GDP/GTP-loaded Ras with ASPP1 fragment. It is filed as binding. As to conditions: purified recombinant proteins, V5 immunoprecipitation, band intensity. An excerpt: FIG. 14 illustrates that purified N-term ASPP1 binds directly in a preferential manner to Ras.GTP. A. Purified ras was loaded with tritium labelled -GDP, -GTP or not loaded as a control. The cpm counts of the tritium are shown. The differences in cpm is due to the fact that GDP and GTP were not tritium-labelled at the same level. B. Relative loading of ras-GDP and ras-GTP, showing the mol of nucleotide bound to ras. Both ras-GDP and ras-GTP were loaded with an equal amount of nucleotide. C. Loaded ras-GDP and ras-GTP with or without purified N-terminus ASPP1 was immunoprecipitated with a V5 antibody against the ASPP1 fragment. The immunoprecipitations were western blotted against ras to see whether there was direct and preferential binding of ras-GDP and ras-GTP to the amino-terminus of ASPP1. D. The intensity of the ras-GDP and ras-GTP bands pulled down by N-term ASPP1 were measured and shown as a graph. N-terminus ASPP1 binds ras-GTP four fold more strongly than it does to ras-GDP;
FIG. 23. Amino-terminus ASPP1 and ASPP2 preferentially bind activated Ras in vitro and in vivo. (A) Sequence homology between the amino-termini of ASPP1 and ASPP2 and the Ras-association domains (RAD) of RGL2 and AF-6. (B) The Ras protein loaded with either tritium-labelled GDP or GTP, was added to V5-tagged recombinant ASPP1 fragment (1-308) and immunoprecipitated with V5 antibody. As a negative control Ras-GDP and Ras-GTP were immunoprecipitated with V5 antibody in the absence of the ASPP1 fragment. The ASPP1 fragment preferentially bound Ras-GTP to Ras-GDP. The intensity of the bands representing immunoprecipitated Ras was quantified and the values shown as a bar graph in the right panel. […] The ASPP proteins were detected with mAbASPP1.54.1 that is known to cross-react with both ASPP1 and ASPP2. […]
2.5 μg of recombinant protein purified from Escherichia coli was incubated in a total volume of 320 μl assay buffer containing 2 μCi [3H] […] An aliquot of each sample had its tritium content measured to check the equal loading of GDP and GTP. […]

Where two headings read alike, the source gives them in different places.

For the molecule p38SAPK, the “in vitro phosphorylation (P32 incorporation)” value in series [1] was “MAPK1, PKA, p38SAPK and p90rsk were all found to be able to phosphorylate ASPP2”.

For the molecule PKA, the “in vitro phosphorylation (P32 incorporation)” value in series [1] is “MAPK1, PKA, p38SAPK and p90rsk were all found to be able to phosphorylate ASPP2”.

On to recombinant MAPK1, for which, in series [1], the “in vitro phosphorylation (P32 incorporation)” value is “MAPK1, PKA, p38SAPK and p90rsk were all found to be able to phosphorylate ASPP2”; the “in vitro phosphorylation assay with 32P-labelled ATP” value is “When compared to p38 SAPK, MAPK1 was clearly able to phosphorylate the ASPP2 fragment in vitro”.

As to “oncogenic H-RasV12, haemagglutinin-tagged (from UniProt P01112 1-186)”, the transactivation function of p53 (bax-luciferase reporter, Saos2 cells) in series [2] is 3 fold; in series [3], 2.5 fold; in series [4] it was 2.5 fold.

For the molecule p90rsk, the “in vitro phosphorylation (P32 incorporation)” value in series [1] was “MAPK1, PKA, p38SAPK and p90rsk were all found to be able to phosphorylate ASPP2”.

On to “oncogenic K-RasV12, haemagglutinin-tagged (from UniProt P79800 1-185)”, for which the transactivation function of p53 (bax-luciferase reporter, Saos2 cells) in series [3] and in series [4] was 2.5 fold in each case.

B1: V5-tagged recombinant ASPP1 fragment (1-308) (protein, not shown: small tags and cut ends)
chain: MMPMILTVFLSNNEQILTEVPITPETTCRDVVEFCKEPGEGSCHLAEVWRGNERPIPFDHMMYEHLQIWGPRREEVKFFLRHEDSPTENSEQGGRQTQEQRTQRNVINVPGDKRTEYGVGNPRVELTLSELQDMAARQQQQIENQQQMLVAKEQRLHFLKQQERRQQQSISENEKLQKLKERVEAQENKLKKIRAMRGQVDYSKIMNGNLSAEIERFSAMFQEKKQEVQTAILRVDQLSQQLEDLKKGKLNGFQSYNGKLTGPAAVELKRLYQELQIRNQLNQEQNSKLQQQKELLNKRNMEVAMMDK
As to B1, the fold affinity for Ras-GTP over Ras-GDP in series [5] came to 4 fold. In addition, the fold binding to ras-GTP over ras-GDP in series [6] amounted to 4 fold.

B2: ASPP1 fragment (1-308): V5-tagged recombinant ASPP1 fragment (1-308) containing the Ras-association domain (protein)
chain: B1 chain
modifications: left off: small tags and cut ends
notes: V5-tagged recombinant ASPP1 fragment (1-308) containing the Ras-association domain
As for B2, the “binding of Ras-GTP relative to Ras-GDP” value in series [7] is listed as 4 fold; in series [7] (listed as N-terminus ASPP1), “four fold”; in series [7] (listed as N-terminus of ASPP1) it was “four-fold”.

These data come from patent US20070225240A1, “Screening Assay and Treatment” (priority 2003, published 2007).
